Results taken from US9764004B2 (Eli Lilly and Company, priority 2015, dated 2017).

Columns and labels:
[1] = molecular target: T1, human glucagon receptor (hGcg-R) (Homo sapiens, UniProt P47871); assay: hGcg-R functional cAMP assay; format: cell-based; conditions: geometric mean ± SEM
T1 construct: expressed in transfected cells; host or cells: 293HEK, plasmid phD, hygromycin selection

[2] = molecular target: human Glucagon-Like Peptide-1 receptor (hGLP-1R) (Homo sapiens, UniProt P43220); assay: hGLP-1-R functional cAMP assay
[3] = Stability in Co-Formulation with GLP-1R Agonist (dulaglutide); format: physicochemical; conditions: four weeks, dulaglutide 3 mg/mL
Experimental: Examples 1 and 3 are prepared and dialyzed against C6.5 (10 mM Citrate pH 6.5) using the same method as described above for preparation into T7 buffer. Compounds are formulated separately at 1 mg/mL peptide in buffer C6.5, C6.5M (10 mM Citrate, 46.4 mg/mL D-mannitol, pH 6.5), C6.5T (10 mM Citrate, 0.02% polysorbate-80, pH 6.5), and C6.5MT (10 mM Citrate, 46.4 mg/mL D-mannitol, 0.02% polysorbate-80, pH 6.5). A stock concentration of 46.5 mg/mL of dulaglutide in C6.5 is used to formulate dulaglutide at 3 mg/mL in C6.5 and C6.5MT. Co-formulations in C6.5MT are prepared having 3 mg/mL dulaglutide and 1 mg/mL Example 1, or 3 mg/mL dulaglutide and 1 mg/mL Example 3. Each formulated sample is transferred to three vials and maintained at 4° C., 25° C. and 40° C. Samples are assessed every two weeks for a total of four weeks. Samples are visually assessed for turbidity and phase separation. Stability is assessed by RP-HPLC and SEC-HPLC as described above. Both described HPLC methods give good separation of Example compounds and dulaglutide main peaks as well as all degradation peaks produced by stressing the sample at pH 9 and 40° C. for 3 days.

Compound	EC50 [1] [nM]	EC50 [2] [nM]	GLP-1-Fc Δ % Main Peak ([3]; RP-HPLC, C6.5, 25° C.) [%]	GLP-1-Fc Δ % Main Peak ([3]; RP-HPLC, C6.5MT, 4° C.) [%]	GLP-1-Fc Δ % Main Peak ([3]; RP-HPLC, C6.5MT, 25° C.) [%]	GLP-1-Fc Δ % Main Peak ([3]; SEC-HPLC, C6.5, 4° C.) [%]	GLP-1-Fc Δ % Main Peak ([3]; SEC-HPLC, C6.5, 25° C.) [%]	GLP-1-Fc Δ % Main Peak ([3]; SEC-HPLC, C6.5, 40° C.) [%]	GLP-1-Fc Δ % Main Peak ([3]; SEC-HPLC, C6.5MT, 4° C.) [%]	GLP-1-Fc Δ % Main Peak ([3]; SEC-HPLC, C6.5MT, 25° C.) [%]	GLP-1-Fc Δ % Main Peak ([3]; SEC-HPLC, C6.5MT, 40° C.) [%]
dulaglutide			>−10	−0.46	−0.8	0.19	−0.54	>−10	0.29	−0.87	−0.83
